Source: publication PMC5287571 (Biochemical pharmacology, 2016)

Biological target: HA-Ubiquitin-Vinyl Sulfone (UniProt P0CG48 1-76, vinyl sulfone (active site probe of cysteine DUBs))
Experiment: active-site-directed labelling with HA-UbVS

binding result: binds
B1: UCHL5 (enzyme)
chain: MTGNAGEWCLMESDPGVFTELIKGFGCRGAQVEEIWSLEPENFEKLKPVHGLIFLFKWQPGEEPAGSVVQDSRLDTIFFAKQVINNACATQAIVSVLLNCTHQDVHLGETLSEFKEFSQSFDAAMKGLALSNSDVIRQVHNSFARQQMFEFDTKTSAKEEDAFHFVSYVPVNGRLYELDGLREGPIDLGACNQDDWISAVRPVIEKRIQKYSEGEIRFNLMAIVSDRKMIYEQKIAELQRQLAEEEPMDTDQGNSMLSAIQSEVAKNQMLIEEEVQKLKRYKIENIRRKHNYLPFIMELLKTLAEHQQLIPLVEKAKEKQNAKKAQETK
